Data from publication PMC10871540 (Science Advances, 2024).

Biological target: T1, UNC-40 ECD (C. elegans, UniProt G5EF96 23-1082)
T1 sequence (looked up): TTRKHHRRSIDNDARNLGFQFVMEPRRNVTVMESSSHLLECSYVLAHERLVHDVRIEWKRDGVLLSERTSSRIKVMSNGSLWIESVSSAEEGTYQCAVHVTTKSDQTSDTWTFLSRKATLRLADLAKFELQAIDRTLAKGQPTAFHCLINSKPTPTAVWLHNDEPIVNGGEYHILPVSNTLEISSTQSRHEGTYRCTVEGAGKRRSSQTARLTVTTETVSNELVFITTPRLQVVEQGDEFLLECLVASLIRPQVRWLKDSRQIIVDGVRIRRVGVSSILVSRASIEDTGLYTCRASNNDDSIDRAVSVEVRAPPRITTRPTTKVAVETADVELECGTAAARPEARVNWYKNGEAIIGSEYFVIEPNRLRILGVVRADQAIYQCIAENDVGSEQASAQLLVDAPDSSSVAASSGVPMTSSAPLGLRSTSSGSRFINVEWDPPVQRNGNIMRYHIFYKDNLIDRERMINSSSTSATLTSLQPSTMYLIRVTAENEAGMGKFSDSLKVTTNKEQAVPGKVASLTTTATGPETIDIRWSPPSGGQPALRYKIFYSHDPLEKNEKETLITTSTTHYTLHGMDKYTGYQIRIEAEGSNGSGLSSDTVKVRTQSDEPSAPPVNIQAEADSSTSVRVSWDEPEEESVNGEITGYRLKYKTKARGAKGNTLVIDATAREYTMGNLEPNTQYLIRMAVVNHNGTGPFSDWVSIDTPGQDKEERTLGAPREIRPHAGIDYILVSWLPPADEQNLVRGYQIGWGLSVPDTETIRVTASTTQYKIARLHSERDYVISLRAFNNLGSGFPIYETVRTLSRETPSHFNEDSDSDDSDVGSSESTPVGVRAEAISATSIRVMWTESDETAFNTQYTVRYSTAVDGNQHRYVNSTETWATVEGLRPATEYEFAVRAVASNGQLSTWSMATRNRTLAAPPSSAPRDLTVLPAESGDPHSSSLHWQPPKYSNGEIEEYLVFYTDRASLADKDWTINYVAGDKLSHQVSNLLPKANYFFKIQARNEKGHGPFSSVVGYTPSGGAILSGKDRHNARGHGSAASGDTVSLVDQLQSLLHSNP
Test: SEC

B1: UNC-6ΔC (ligand)
chain: not shown
binding result: binds
